Source: paper PMC8863163 (Research Square, 2022)

Biological target: T1, SARS-CoV-2 nsp12 (RNA-dependent RNA polymerase with N-terminal NiRAN domain) (SARS-CoV-2, UniProt P0DTD1)
T1 construct: also called RdRp; WT nsp12
Test: cryo-EM structure
Conditions: both partners purified

B1: SARS-CoV-2 nsp9 with native N-terminus (natural protein)
chain: NNELSPVALRQMSCAAGTTQTACTDDNALAYYNTTKGGRFVLALLSDLQDLKWARFPKSDGTGTIYTELEPPCRFVTDTPKGPKVKYLYFIKGLNNLNRGMVLGSLAATVRLQ
notes: also called native nsp9
B1: binds.
